Reference: article PMC4136701, “A Conserved Cysteine Residue of Bacillus subtilis SpoIIIJ Is Important for Endospore Development” (PLoS ONE, 2014)
One block for each molecule: values may come before it.

B1: truncated SpoIIIJ-His6 starting at L122 (fragment "c", lacking TM1) (domain or fragment, Bacillus subtilis, UniProt Q01625 122-261, looked up)
chain: LFQKHGVNPLAGCFPILIQMPILIGFYHAIMRTQAISEHSFLWFDLGEKDPYYILPIVAGVATFVQQKLMMAGNAQQNPQMAMMLWIMPIMIIVFAINFPAALSLYWVVGNLFMIAQTFLIKGPDIKKNPEPQKAGGKKK
notes: SpoIIIJ, Bacillus subtilis; about 16 kDa product of cleavage at L122 in the cytoplasmic loop between TM1 and TM2: the rest of that loop to the end of the protein (includes TM2 with Cys134); Two species of about 15 kDa both start at L122; The cause of their different mobility is not known; also called band c; truncated SpoIIIJ monomer (lacking TM1); source: E. coli C43(DE3), proteolytic product …
B2: SpoIIIJ-His6 (natural protein, Bacillus subtilis, UniProt Q01625 23-261, looked up)
chain: CSSVKEPITADSPHFWDKYVVYPLSELITYVAKLTGDNYGLSIILVTILIRLLILPLMIKQLRSSKAMQALQPEMQKLKEKYSSKDQKTQQKLQQETMALFQKHGVNPLAGCFPILIQMPILIGFYHAIMRTQAISEHSFLWFDLGEKDPYYILPIVAGVATFVQQKLMMAGNAQQNPQMAMMLWIMPIMIIVFAINFPAALSLYWVVGNLFMIAQTFLIKGPDIKKNPEPQKAGGKKK
modifications: Cys23 of the lipoprotein-type signal peptide is modified during insertion of the protein into the membrane
notes: SpoIIIJ, membrane protein insertase of the YidC/Oxa1/Alb3 family, Bacillus subtilis; calculated mass 27 kDa; Purified protein is a mixture of monomers and dimers; it also holds proteolytic products starting at L122; also called full-length mature SpoIIIJ-His6; SpoIIIJ^wt-His6; source: E. coli C43(DE3) bearing pMS266, membrane fraction solubilised with 2% DDM, purified (Ni2+-NTA); not shown: His6, …

Columns and labels:
[1] = molecular target: SpoIIIJ^C134A-His6 (Bacillus subtilis) (UniProt Q01625); experiment: SEC; Superose 12 HR 10/30; 20 mM Tris-HCl pH 7.6, 10% glycerol, 0.5 M NaCl, 0.1% DDM, 100 mM imidazole; fractions immunoblotted; peak areas estimated with ImageJ
SpoIIIJ-His6 = molecular target: B2; experiment: SDS-PAGE with or without reducing agent; purified protein in loading buffer with (100 mM) or without DTT; Coomassie staining or immunoblot with anti-His6; bands a and b cut out and run again; conditions: both partners purified
[2] = molecular target: the molecule itself; experiment: SEC; Superose 12 HR 10/30; 20 mM Tris-HCl pH 7.6, 10% glycerol, 0.5 M NaCl, 0.1% DDM, 100 mM imidazole; fractions immunoblotted; peak areas estimated with ImageJ
[3] = molecular target: the molecule itself; experiment: SDS-PAGE with or without reducing agent; purified protein in loading buffer with (100 mM) or without DTT; Coomassie staining or immunoblot with anti-His6; bands a and b cut out and run again

- ratio of peak areas B (monomer size) to A (dimer size) (peak B : peak A) [1]: 0.4
Molecule: SpoIIIJ^C134A-His6 (from UniProt Q01625 23-261) (natural protein)

Molecule: B1
- binding result (SpoIIIJ-His6): binds

Molecule: B2
- ratio of peak areas B (monomer size) to A (dimer size) [2]: 0.111 peak B : peak A
- stoichiometry N [2]: ~2
- stoichiometry N [3]: 2
